Laboratory results from patent US20080160035A1 (Regeneron, published 2008).

T1: mouse IL-4R (mouse, UniProt P16382 26-233, limits assumed)
T1 sequence (looked up): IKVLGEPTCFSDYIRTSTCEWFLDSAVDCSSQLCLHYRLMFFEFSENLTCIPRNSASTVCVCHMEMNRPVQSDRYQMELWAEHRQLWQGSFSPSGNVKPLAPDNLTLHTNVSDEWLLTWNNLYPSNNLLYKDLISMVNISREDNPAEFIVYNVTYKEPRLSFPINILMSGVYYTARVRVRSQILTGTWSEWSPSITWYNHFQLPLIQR

T2: dimeric hIL-4R-hFc (human, UniProt P24394 26-232)
T2 construct: also called hIL-4R-Fc; not shown: human Fc (hFc)
T2 sequence: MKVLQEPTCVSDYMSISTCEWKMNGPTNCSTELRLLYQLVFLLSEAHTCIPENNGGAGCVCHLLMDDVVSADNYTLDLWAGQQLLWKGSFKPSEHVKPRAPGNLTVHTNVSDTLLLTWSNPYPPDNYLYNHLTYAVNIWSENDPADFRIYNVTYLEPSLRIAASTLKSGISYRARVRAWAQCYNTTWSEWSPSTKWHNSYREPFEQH

T3: hIL-4R on cells (STAT6-transfected HEK293, TF1, TF1/A12) (human, UniProt P24394 26-825)
T3 sequence (looked up): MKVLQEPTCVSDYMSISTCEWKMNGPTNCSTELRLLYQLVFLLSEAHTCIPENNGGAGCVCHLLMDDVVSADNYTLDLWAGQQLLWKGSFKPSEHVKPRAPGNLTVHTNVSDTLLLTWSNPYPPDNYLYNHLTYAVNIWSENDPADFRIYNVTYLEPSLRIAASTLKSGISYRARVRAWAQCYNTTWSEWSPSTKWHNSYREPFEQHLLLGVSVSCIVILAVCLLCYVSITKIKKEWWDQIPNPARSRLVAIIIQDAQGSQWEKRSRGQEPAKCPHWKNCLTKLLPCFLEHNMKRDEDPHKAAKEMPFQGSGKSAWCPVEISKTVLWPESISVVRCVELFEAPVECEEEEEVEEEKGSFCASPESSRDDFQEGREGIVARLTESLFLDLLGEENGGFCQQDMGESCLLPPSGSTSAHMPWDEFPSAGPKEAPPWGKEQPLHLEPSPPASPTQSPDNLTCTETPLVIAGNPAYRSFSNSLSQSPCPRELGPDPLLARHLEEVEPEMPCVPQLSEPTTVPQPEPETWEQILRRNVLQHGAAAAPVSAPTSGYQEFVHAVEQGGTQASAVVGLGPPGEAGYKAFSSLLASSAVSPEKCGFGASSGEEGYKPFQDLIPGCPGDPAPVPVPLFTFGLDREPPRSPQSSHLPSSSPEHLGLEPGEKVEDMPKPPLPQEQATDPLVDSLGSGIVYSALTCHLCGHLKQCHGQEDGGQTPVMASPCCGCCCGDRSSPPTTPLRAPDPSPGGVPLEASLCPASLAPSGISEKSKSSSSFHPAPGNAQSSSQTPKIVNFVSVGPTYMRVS

T4: monomeric hIL-4R (R&D Systems) (human, UniProt P24394 26-231)
T4 construct: Bought (R&D Systems); also called hIL-4R monomer
T4 sequence: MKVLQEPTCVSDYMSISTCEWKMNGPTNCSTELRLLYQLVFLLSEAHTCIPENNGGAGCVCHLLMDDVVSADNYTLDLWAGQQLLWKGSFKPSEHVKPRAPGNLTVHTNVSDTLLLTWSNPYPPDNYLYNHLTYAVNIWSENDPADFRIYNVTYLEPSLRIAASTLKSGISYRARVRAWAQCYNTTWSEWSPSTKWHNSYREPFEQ

B1: VAK8G11-13 (antibody, V domains shown)
VH: QVRLVESGGGVVQPGGSLRLSCAASGFIFRSYGMHWVRQAPGRGLEWVAVISYDGSKTFYVDSVKVRFTISRDNSKNTLYLEMNSLRVDDTAVYFCVKEGRSGSWFDPWGQGTLVAVSS
VL: DIHMTQSPSSLSASVGDRVTITCRASQAINNFLAWFQQKPGKTPKSLIFATSSLQSGVPSRFSGSGSGTDFTLTISSLQPEDFATYYCQQYNSHPWTFGQGTKVEIK
notes: Apparently tested with mouse constant region (anti-mouse IgG capture/detection)
B2: VAK10G6-7 (antibody, V domains shown)
VH: QVQLVESGGGVVQPGRSLRLSCTASGFTFSSFGMHWVRQAPGRGLEWVAVISYDGSKKYYADSVKVRFTISRDNSKNTLYLQMNSLRVDDTAVYFCAKEGRTGNWFDPWGQGTLVAVSS
VL: DIQMTQSPSSLSASVGDRVTITCRASQAINNYLAWFQQKPGKTPKSLIFATSSLQSGVPSRFSGTGSGTDFTLTISSLQPEDFATYYCQQYNSHPWTFGQGTKVEIR
notes: as for B1
B3: VAK11D4-1 (antibody, V domains shown)
VH: QVRLVESGGGVVQPGRSLRLSCVASGFTFRSYGMHWVRQAPGRGLEWVAVISYDGSQTFYVDSVKVRFTISRDNSNNTLYLEMNSLRVDDTAVYFCVKEGRSGSWFDPWGQGTLVAVSS
VL: DIHMTQSPSSLSASVGDRVTITCRASQAINNYLAWFQQKPGRTPKSLIFATSSLQSGVPSRFSGSGSGTDFTLTISSLQPEDFATYYCQQYNSHPWTFGQGTKVEIK
notes: as for B1
B4: VAK7G8-5 (antibody, V domains shown)
VH: QVRLVESGGGVVQPGGSLRLSCTASGFIFRSYGMHWVRQAPGRGLEWVAVISYDGSKTFYVDSVKVRFTISRDNSKNTLYLEMNSLRVDDTAVYFCVKEGRSGSWFDPWGQGTLVAVSS
VL: DIHMTQSPSSLSASVGDRVTITCRASQAINNFLAWFQQKPGKTPKSLIFATSSLQSGVPSRFSGSGSGTDFTLTISSLQPEDFATYYCQQYNSHPWTFGQGTKVEIR
notes: as for B1
B5: VAK5H4-4 (antibody, V domains shown)
VH: QVRLVESGGGVVQPGGSLRLSCVASGFTFRSYGMHWVRQAPGRGLEWVAVISYDGSKTFYVDSVKVRFTISRDNSKNTLYLEMNSLRVDDTAVYFCVKEGRSGSWFDPWGQGTLVAVSS
VL: DIQMTQSPSSLSASVGDRVTITCRASQAINNFLAWFQQKPGKTPNSLIFATSSLQSGVPSRFSAGGSGTDFTLTISSLQPEDFATYYCQQYNSHPWTFGQGTKVEIK
notes: as for B1
B6: VAB 10C1-5 (antibody, V domains shown)
VH: QVQLVETGGDLVRPGGSLRLSCTASGFTLSDYYMSWIRQAPGKGLEWVSYIRRSGNTIYYADSVKGRFTISRDNAKNSLYLQMNSLRAEDTAVYYCARGGDWADVWGQGTTVTVSS
VL: DIQMTQSPSSLSASVGDRVTITCRASQGISIYLAWFQQKPGKAPKSLIYAASSLQRGVPSKFSGSGSGTDFTLTISSLQPEDFATYYCQQYNSYPYTFGQGTKLEIK
notes: as for B1
B7: VAK9C6-11 (antibody, V domains shown)
VH: QVQLVESGGGVVQPGRSLRLSCAASGFTFSSYGMHWVRQAPGKGLEWVTVISYDGSIKYYVDSVKGRFTISRDNSKNTLFLQMNSLRVEDTAVYYCAKEGRKYGMDVWGQGTTVTVSS
VL: DIQMTQSPSTLSASVGDRVTITCRASQIISSLLVWYQQKPGKAPKLLIYKASSLESGVPSRFSGSGSGTEFTLTISSLQPDDFATYYCQQYHSYMYTFGQGTKLEIK
notes: as for B1

Legend:
mouse IL-4R = target: T1, mouse IL-4R; experiment: binding affinity test of Example 2 (method not restated)
dimeric hIL-4R-hFc [1] = target: T2, dimeric hIL-4R-hFc; experiment: ELISA; antibody titrated against 25 pM hIL-4R-Fc, free receptor caught on hIL-4 plate
Method: Concentration of free hIL-4R-Fc (no antibody bound) was determined using a hIL-4R-specific sandwich ELISA. […] After a one-hour incubation at room temperature, the detection plate was washed and plate-bound hIL-4R-hFc was detected using HRP conjugated goat anti-hFc polyclonal antibodies and developed using colorimetric substrates such as BD OptEIA™ (BD Biosciences Pharmingen, San Diego, Calif.). After the reaction was stopped with 1 M phosphoric or sulfuric acid, absorbances at 450 nm were recorded and the data were analyzed using GraphPad™ Prism software.

[2] = target: T3, hIL-4R on cells (STAT6-transfected …); experiment: cell-based or functional assay
dimeric hIL-4R-hFc [3] = target: T2, dimeric hIL-4R-hFc; experiment: SPR; reduction of hIL-4 (50 nM) binding to captured hIL-4R-hFc after antibody; competitor hIL-4
Description: Purified hIL-4R-hFc molecules were captured by goat anti-human IgG polyclonal antibody immobilized on CM-5 to a density of 260 RU, to prepare a receptor-coated surface.

[4] = target: T4, monomeric hIL-4R (R&D Systems); experiment: SPR (BIAcore 2000); antibody captured, monomeric hIL-4R injected
Method: (§1) Binding affinity (KD) of selected antibodies with respect to hIL-4R was determined using a real-time biosensor surface plasmon resonance assay (BIAcore™ 2000). Briefly, antibody was captured on a goat anti-mouse (GAM) IgG polyclonal antibody surface created through direct chemical coupling of the GAM IgG to a BIAcore™ chip to form a captured antibody surface. […] Binding of antigen to antibody and dissociation of the bound complex, were monitored in real time. Equilibrium dissociation constants (KD) and dissociation rate constants were ascertained by performing kinetic analysis using BIA evaluation software. BIA evaluation software was also used to calculate the half-life of antigen/antibody complex dissociation (T_{1/2}). […] The binding affinity of anti-hIL-4R antibodies to either mouse or monkey (Macaca fascicularis) IL-4R was also tested.

[5] = target: T3, hIL-4R on cells (STAT6-transfected …); experiment: cell-based or functional assay; remark: listed apart in the source
dimeric hIL-4R-hFc [6] = target: T2, dimeric hIL-4R-hFc; experiment: SPR (BIAcore 2000); antibody captured, dimeric hIL-4R-hFc injected
Method: as §1

| Binder | binding result (mouse IL-4R) | IC50 (dimeric hIL-4R-hFc [1]) [pM] | STAT6 Bioassay IC50 (HEK293 STAT6 luciferase, 40 pM hIL-13) [2] | TF1 Bioassay IC50 (proliferation, 150 pM hIL-13) [2] [nM] | % Inhibition (BIAcore) (dimeric hIL-4R-hFc [3]) [%] | Kd [4] [pM] | T1/2 monomeric [4] [h] | STAT6 Bioassay IC50 (HEK293 STAT6 luciferase, 10 pM hIL-4) [5] | TF1 Bioassay IC50 (proliferation, 50 pM hIL-4) [5] [nM] | Kd (dimeric hIL-4R-hFc [6]) [pM] | T1/2 dimeric (dimeric hIL-4R-hFc [6]) [h] | TF1/A12 Bioassay IC50 (proliferation, 20 pM hIL-4) [5] [nM] |
| --- | --- | --- | --- | --- | --- | --- | --- | --- | --- | --- | --- | --- |
| B1 | no binding | 26 | 60 pM | 0.42 | 95 | 30 | 14 | 80 pM | 0.16 | 2 | 63 | – |
| B2 | no binding | 37 | 70 pM | 0.46 | 95 | 230 | 2.4 | 0.11 nM | 0.23 | 11 | 24 | – |
| B3 | no binding | 35 | 0.14 nM | 0.44 | 95 | 50 | 8 | 0.2 nM | 0.2 | 6 | 21 | – |
| B4 | no binding | 27 | 40 pM | 0.36 | 95 | 60 | 8 | 60 pM | 0.13 | 9 | 25 | – |
| B5 | no binding | 33 | 84 pM | 0.24 | 96 | 20 | 16 | 0.132 nM | 0.15 | 4 | 30 | 0.182 |
| B6 | no binding | 34 | 1 nM | – | 93 | 4470 | 0.1 | 1.9 nM | – | 51 | 6.7 | 22.8 |
| B7 | no binding | 67 | 0.3 nM | 1 | 96 | 2050 | 0.467 | 0.48 nM | 0.31 | 68 | 7 | – |
